“Also recorded” adds a separate entry of the source. Values belong to the molecule of their own block, whether it stands above or below them.
Assays:
[1] = target: T1, dephosphorylated Aurora A kinase (Homo sapiens, UniProt O14965); test: Isothermal titration calorimetry (ITC) binding to dephosphorylated Aurora A kinase; conditions: for binding affinity of monobody to dephosphorylated Aurora A kinase / binding affinity of sGFP-monobody fusion to Aurora A kinase compared with the monobody: ITC; for binding affinity of monobody to dephosphorylated Aurora A kinase: FIG. 8; for change of binding affinity of monobody to dephosphorylated Aurora A kinase: Aurora A pre-saturated with danusertib, FIGS. 11A-11B; for binding affinity of sGFP-monobody fusion to Aurora A kinase compared with the monobody: FIGS. 17B, 18D
T1 construct: Codon-optimized Aurora A^122-403 in pET28a and untagged λPP in T7-7 plasmid were co-transformed in BL21(DE3) cells; inferred from pET28a and the NiNTA column) (cleaved yes); made in house; host or cells: E. coli BL21(DE3), co-expressed with lambda protein phosphatase
T1 sequence (O14965 122-403): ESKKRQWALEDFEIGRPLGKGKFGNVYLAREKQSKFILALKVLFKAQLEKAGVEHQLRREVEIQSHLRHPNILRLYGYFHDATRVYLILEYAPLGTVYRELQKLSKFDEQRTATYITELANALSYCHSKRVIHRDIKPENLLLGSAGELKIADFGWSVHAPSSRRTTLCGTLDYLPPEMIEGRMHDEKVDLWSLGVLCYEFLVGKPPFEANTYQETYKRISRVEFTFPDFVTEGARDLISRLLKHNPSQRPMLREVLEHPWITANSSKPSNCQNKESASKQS
Protocol: (§1) Titrations were carried out using Nano ITC isothermal titration calorimeter (TA Instruments) and analyzed via the NanoAnalyze software using the independent fit model. Injectant was added in 1 μl volume, every 180 s, with a constant stirring speed at 350 rpm and at 25° C. Prior to ITC titration, both protein and TPX2 or monobody were dialyzed/resuspended in ITC buffer (20 mM TrisHCl, 200 mM NaCl, 3% (vol/vol) glycerol, 1 mM TCEP, pH 7.50).

[2] = system: dephosphorylated Aurora A kinase-TPX2 chimera; test: ITC binding to dephosphorylated Aurora A kinase-TPX2 chimera; design: species or system human; conditions: PIF pocket occupied by TPX2; relative to Aurora A kinase alone
Protocol: as §1

Aurora A kinase = target: T2, Aurora A kinase (Homo sapiens, UniProt O14965); test: In vitro kinase assay (HPLC-based / ATP/NADH-coupled) of peptide substrate phosphorylation; format: biochemical; conditions: for effect of monobody on Aurora A kinase activity: Lats2 peptide substrate, FIG. 9
T2 construct: Codon-optimized Aurora A^122-403 in pET28a and untagged λPP in T7-7 plasmid were co-transformed in BL21(DE3) cells; inferred from pET28a and the NiNTA column) (cleaved yes); made in house; host or cells: E. coli BL21(DE3)
T2 sequence (O14965 122-403): T1 sequence (O14965 122-403)
Protocol: Aurora A, either phosphorylated/dephosphorylated wild type or mutant protein, was mixed with either AP ([…]) (SEQ ID NO: 5), Kemptide (LRRASLG) (SEQ ID NO: 6), or Lats2 ([…]) (SEQ ID NO: 7), in the absence or presence of 50 μM TPX2 in kinase buffer (20 mM TrisHCl, 200 mM NaCl, 3% [vol/vol] glycerol, 20 mM MgCl2, 1 mM TCEP, pH 7.50). These substrates comprise the consensus sequence for Aurora A ([R/K/N]—R—X—[S/T]-B where B is any hydrophobic residue with the exception of Pro) (Ferrari et al., 2005, Biochem. J., 390(Pt 1):293-302; Ohashi et al., 2006, Oncogene, 25:7691-7702; Sardon et al., 2010, EMBO Reports, 11:977-984). Peptides were ordered through Genscript. For HPLC-based activity assays the following protocol was used. The reaction was initiated with the addition of 5 mM ATP. Then 5 μl time points were collected, resuspended in 10 μl 6% (vol/vol) trichloroacetic acid (in water) to quench the reaction, and neutralized with 50 μl 100 mM KH2PO4, pH 8.0 to provide the appropriate pH for nucleotide separation. The mixture was then passed through a 0.22 μm SpinX column to remove any protein precipitation. Reverse phase-high performance liquid chromatography (RP-HPLC) and an ACE 5 C18-AR, 100 Å pore size column, were used to separate nucleotides as well as peptides. For nucleotide runs, 2 μl of the aforementioned mixture was sufficient for analysis, whereas for the peptide runs the optimal injection volume was 20 μl. Nucleotide runs were routinely performed to ensure no unproductive hydrolysis was occurring during the experiment. An isocratic elution run in 100 mM KH2PO4, pH 6.0 was performed for this purpose. For the peptide runs, a gradient of 0-30% of elution buffer lasting 10 min at 0.4 mL/min was sufficient to separate phosphorylated from non-phosphorylated species. The running buffer was 0.1% TFA (vol/vol) in water, while the elution buffer was 100% acetonitrile. Lastly, to ensure full saturation of Aurora A by TPX2 and test these proteins were well behaved, a dose-dependence curve of the effect of TPX2 on Aurora A was obtained.
For ATP/NADH-coupled assay-based reaction, the following protocol was used. Phosphorylation of different concentrations of Lats2 peptide was monitored using the ATP/NADH coupled assay in a 96-well plate format. Reactions were carried in the presence of 1 μM dephosphorylated or 0.05 μM phosphorylated Aurora and 5 mM ATP in assay buffer (20 mM TrisHCl, 200 mM NaCl, 20 mM MgCl2, 10% (v/v) glycerol, 1 mM TCEP, pH 7.50) at 25° C.

HEK293 cells = test: HEK293 viability (luminescence) after 7 hours of treatment; format: cell-based, human; conditions: various monobody concentrations, FIG. 17E
Text: (§2) FIGS. 17A-17F present a set of plots, images and graphs showing data gathered using cultured HEK293 cells. In FIGS. 17A-17F, alternative names of the monobodies described herein are used. […] The error bars represent the standard error for the estimate of Kd and are a measure of the goodness of fit of the data. […] As observed in FIG. 17D, sGFP-Mb60's optimal cell delivery occurs after 7 hrs of exposure. FIG. 17E presents a bar graph of luminescence (mean±SEM, n=4 measurements/dataset) as a measure of HEK293 viability after cells were treated for 7 hours under the conditions indicated below the x-axis. Asterisks indicate significance levels of between-conditions t-test comparisons of the different conditions with liposome-treated control; […]; **=p≤0.01; ***=p≤0.001. […] Cells were quadruple stained to visualize DNA/sGFP(−Mbs)/Aurora A kinase/TPX2. […] In the images, DNA stained blue; GFP stained green; Aurora A kinase stained red; and […].

[3] = system: Aurora A kinase in HEK293 cells; test: Immunofluorescence co-localization with Aurora A kinase in HEK293 cells; format: cell-based, human; conditions: 7 hours after delivery, FIG. 17F
Text: as §2

B1: Mb51: monobody binding allosteric site of Aurora A kinase, SEQ ID NO: 2; inhibitor (protein, listed as Homo sapiens)
chain: GSVSSVPTKLEVVAATPTSLLISWDAKPMSYEPVYYYRITYGETGGNSPVQEFTVPGYYSTATISGLKPGVDYTITVYADSMSSYYYSPISINYRT
binding affinity of monobody to dephosphorylated Aurora A kinase [1]: low nanomolar affinities
Activity of Monobody on Aurora A kinase (Aurora A kinase): inhibitor
effect of monobody on Aurora A kinase activity (Aurora A kinase): strongly inhibit

B3: sGFP-Mb60: fusion polypeptide of supercharged GFP and inhibiting monobody Mb60 (aka Mb2) (protein)
chain: GSVSSVPTKLEVVAATPTSLLISWDAPAVTVVHYVITYGETGGNSPVQEFTVPGSKSTATISGLKPGVDYTITVYAIDFYWGSYSPISINYRT
modifications: left off: large carriers
binding affinity of sGFP-monobody fusion to Aurora A kinase compared with the monobody [1]: comparable; also recorded: closely mimicked the binding
cell death / viability of HEK293 cells (HEK293 cells): statistically significant cell death
inhibition of Aurora A kinase activity by sGFP fusion compared with the monobody (Aurora A kinase; FIG. 17C): same extent as Mb60
co-localization with Aurora A kinase [3]: strong co-localization

B4: Mb44: monobody binding allosteric site of Aurora A kinase, SEQ ID NO: 1; inhibitor (protein, listed as Homo sapiens)
chain: GSVSSVPTKLEVVAATPTSLLISWDAPAVTVDFYVITYGETGGYSYPWQEFEVPGSKSTATISGLKPGVDYTITVYADYGQYFYSPISINYRT
binding affinity of monobody to dephosphorylated Aurora A kinase [1]: low μM levels
Activity of Monobody on Aurora A kinase (Aurora A kinase): inhibitor
effect of monobody on Aurora A kinase activity (Aurora A kinase): strongly inhibit

B6: sGFP-Mb6: fusion polypeptide of supercharged GFP and activity-neutral monobody Mb6 (protein)
chain: GSVSSVPTKLEVVAATPTSLLISWDAFGHQYEPVYYYRITYGETGGNSPVQEFTVPGYYSTATISGLKPGVDYTITVYAWYVDGSYSSPISINYRT
modifications: left off: large carriers
cell death / viability of HEK293 cells (HEK293 cells): statistically significant cell death
co-localization with Aurora A kinase [3]: strong co-localization

B7: Mb54: monobody binding allosteric site (PIF pocket) of Aurora A kinase, SEQ ID NO: 11; activator (protein, listed as Homo sapiens)
chain: GSVSSVPTKLEVVAATPTSLLISWDAQTYQMYDYVSYYRITYGETGGNSPVQEFTVPGYYSTATISGLKPGVDYTITVYAEGYYSSYSPISINYRT
change of binding affinity of monobody to dephosphorylated Aurora A kinase [1]: weakened
binding affinity of monobody to dephosphorylated Aurora A kinase [1]: low nanomolar affinities
Activity of Monobody on Aurora A kinase (Aurora A kinase): activator
effect of monobody on Aurora A kinase activity (Aurora A kinase): strongest activator; also recorded: activate; also recorded: activation

B8: sGFP-Mb54: fusion polypeptide of supercharged GFP and activating monobody Mb54 (aka Mb1) (protein)
chain: B7 chain
modifications: left off: large carriers
binding affinity of sGFP-monobody fusion to Aurora A kinase compared with the monobody [1]: closely mimicked the binding
cell death / viability of HEK293 cells (HEK293 cells): did not cause cell death
co-localization with Aurora A kinase [3]: strong co-localization

B9: Mb56: monobody binding allosteric site of Aurora A kinase, SEQ ID NO: 3; inhibitor (protein, listed as Homo sapiens)
chain: GSVSSVPTKLEVVAATPTSLLISWDAMSDWYYWVDYYRITYGETGGNSPVQEFTVPGSYSTATISGLKPGVDYTITVYASDDVWGDYSPISINYRT
binding affinity of monobody to dephosphorylated Aurora A kinase [1]: low nanomolar affinities
Activity of Monobody on Aurora A kinase (Aurora A kinase): inhibitor
effect of monobody on Aurora A kinase activity (Aurora A kinase): strongly inhibit

Now from value to molecule, other results behind:

weakening of binding affinity of danusertib ([1]; Aurora A pre-saturated with activating monobody Mb54 (aka Mb1), FIG. 10C): 19 fold
tightening of binding affinity of danusertib ([1]; Aurora A pre-saturated with inhibiting monobody Mb60 (aka Mb2), FIG. 10C): 4.7 fold
binding of danusertib to Aurora A tighter in the presence of PS48 ([1]; saturating levels of PS48 vs none): about 2 times
binding of danusertib to Aurora A kinase chimera weaker than binding to Aurora A kinase [2]: about 4 times
Molecule: CO[C@@H](C(=O)N1Cc2[nH]nc(NC(=O)c3ccc(N4CCN(C)CC4)cc3)c2C1)c1ccccc1 [danusertib, reference compound]

change of binding affinity of monobody to dephosphorylated Aurora A kinase [1]: tightened
binding affinity of monobody to dephosphorylated Aurora A kinase [1]: low μM levels
Activity of Monobody on Aurora A kinase (Aurora A kinase): inhibitor
B2: Mb60: monobody binding allosteric site of Aurora A kinase, SEQ ID NO: 4; inhibitor (protein, listed as Homo sapiens)
chain: B3 chain
effect of monobody on Aurora A kinase activity (Aurora A kinase): inhibitor; also recorded: inhibited; also recorded: strong inhibition

Activity of Monobody on Aurora A kinase (Aurora A kinase): neutral
B5: Mb6: monobody binding allosteric site of Aurora A kinase, SEQ ID NO: 10; activity neutral (protein, listed as Homo sapiens)
chain: B6 chain
binding affinity of monobody to dephosphorylated Aurora A kinase [1]: low nM affinity; also recorded: low nanomolar affinities
effect of monobody on Aurora A kinase activity (Aurora A kinase): weakest regulator; also recorded: did not significantly modulate; also recorded: neutral activity
